In article PMC2799554:

Target: Moraxella immunoglobulin (Ig) D binding protein (MID) of M. catarrhalis BBH18, on whole bacteria and on their outer membrane vesicles (OMV) (Moraxella catarrhalis)
Assay: flow cytometry on cells

Substance: human IgD, soluble, from serum (natural protein)
- percent reduction of bacterial binding to B cells at 150 µg/ml IgD: 40%
